Tests used:
[1] = biological target: Recombinant histidine-tagged EWSR1 (Ewing sarcoma breakpoint region 1 protein) (UniProt Q01844); assay: BLI
[2] = biological target: T1, EWSR1 (UniProt Q01844 1-656); assay: EMSA; settings: protein: recombinant; tags: N-terminal 6xHis (pET28a)
[3] = biological target: T2, CHIKV nsP2 (Chikungunya virus, UniProt Q8JUX6 536-1333); assay: EMSA; settings: protein: recombinant; tags: His6-SUMO removed
[4] = biological target: T1, EWSR1; assay: EMSA; polyIC; settings: protein: recombinant; tags: N-terminal 6xHis (pET28a)
[5] = biological target: T2, CHIKV nsP2; assay: EMSA; polyIC; settings: protein: recombinant; tags: His6-SUMO removed
[6] = biological target: T1, EWSR1; assay: BLI; 2:1 binding model; settings: protein: recombinant; tags: N-terminal 6xHis (pET28a)
[7] = biological target: T2, CHIKV nsP2; assay: BLI; 2:1 binding model; settings: protein: recombinant; tags: His6-SUMO removed
[8] = biological target: T2, CHIKV nsP2; assay: EMSA; polyIC; figure description says weak; settings: protein: recombinant; tags: His6-SUMO removed

T1 sequence (Q01844 whole entry): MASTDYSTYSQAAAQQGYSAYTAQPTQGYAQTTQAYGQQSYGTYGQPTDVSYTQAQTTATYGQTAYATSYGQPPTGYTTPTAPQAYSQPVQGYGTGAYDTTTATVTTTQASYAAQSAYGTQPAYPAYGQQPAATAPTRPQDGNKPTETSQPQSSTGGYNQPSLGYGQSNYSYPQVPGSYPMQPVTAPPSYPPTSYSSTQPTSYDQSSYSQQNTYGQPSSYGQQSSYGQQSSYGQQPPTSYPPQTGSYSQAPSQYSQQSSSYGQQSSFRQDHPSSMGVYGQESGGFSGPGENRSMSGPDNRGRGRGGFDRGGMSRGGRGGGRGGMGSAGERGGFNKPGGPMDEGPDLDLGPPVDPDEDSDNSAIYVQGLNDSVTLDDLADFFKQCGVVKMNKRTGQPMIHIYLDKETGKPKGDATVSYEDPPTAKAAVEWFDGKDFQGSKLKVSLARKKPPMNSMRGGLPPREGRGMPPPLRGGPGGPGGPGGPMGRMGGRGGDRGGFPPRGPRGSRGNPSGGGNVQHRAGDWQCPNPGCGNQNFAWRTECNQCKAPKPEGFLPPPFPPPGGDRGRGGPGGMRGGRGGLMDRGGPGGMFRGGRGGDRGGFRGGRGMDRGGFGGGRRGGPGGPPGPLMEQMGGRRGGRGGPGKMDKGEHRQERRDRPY
Sequence of Recombinant histidine-tagged EWSR1 (Ewing sarcoma breakpoint region 1 protein) (Q01844 whole entry): as above

Full-length CHIKV nsP2 protein (recombinant) (from UniProt Q8JUX6 536-1333) (enzyme)
Kd [1]: 716 nM

GUGAUUCAGAGGUUUUUGACUUUAGUAAAUCGCCCAUCCUUUGAUAGA (ssRNA) [Random48]
binding result [2]: no binding | binding result [3]: binds

GUUUUUAAUAUUUC (ssRNA) [14-mer of 3NCR48]
binding result [4]: binds | binding result [5]: binds

UCCGAACCCACAGGGACGUAGGAGAUGUUAUUUUGUUUUUAAUAUUUC (ssRNA) [3NCR48]
Kd [6]: 91.4 ± 0.37 nM | Kd [7]: 92.9 ± 1.6 nM

UCUCUUGCUUUGCAGAGUAGAGCAGUAAGAAACUGGUAGGCUACGUGUGU (ssRNA) [5NCR-RC50]
Kd [6]: 80.2 ± 0.39 nM | binding result [8]: binds

— article PMC13483453, “Ewing sarcoma breakpoint region 1 (EWSR1) protein binds to nonstructural protein 2 and non-coding regions of chikungunya virus genome to inhibit virus replication”
